Molecular target: tube protein gp14 (cyanophage Pam3)
Experiment: cryo-EM structure

**Q.** tube protein gp14 (natural protein) was tested. Which stoichiometry N did it give?
**A.** 6

— paper PMC9942802
